Target: T1, 重组Human CD63蛋白(Ala103-Val203) (Human, UniProt P08962 103-203)
T1 construct: Fragment 103-203 of human CD63 expressed in 293F cells from vector pBR322 and purified with imidazole elution; also called 重组CD63蛋白; 重组Human CD63成熟蛋白
T1 sequence: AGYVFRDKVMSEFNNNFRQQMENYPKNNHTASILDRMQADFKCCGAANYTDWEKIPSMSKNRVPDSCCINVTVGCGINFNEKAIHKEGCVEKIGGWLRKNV
Experiment: sandwich ELISA, 3C5 coated as capture antibody at 2 ug/mL, Human CD63 0-10 ng/mL, OD450

binding result: binds
B1: 针对Human CD63的兔单克隆抗体3C5 (antibody, V domains shown)
VH: QEQLVESGGGLVQPEGSLTLTCTASGFTFSTAWMSWVRQAPGKGLEWIGIINTGGTGKTYYASWAKGRFTCSKTSSTTVTLQMTSLTAADTATYFCARETADFNLWGQGTLVTVSS
VL: DVVMTQTPSSTSEPVGGTVTINCQASESVYNNDDLAWLQQKPGQPPKVLIYSASKLASGVPSRFSGSGSGTQFTLTISGVQCDDAASYYCVGLFDGDYFAFGGGTEVVVKG
notes: Coated on the plate as capture antibody at 2 ug/mL; also called 捕获抗体
